Starred links: 1 amine or outer side, 2 acyl side, 3 side chain; linkers in the order of their positions; H or OH if unused. Positions of bridges follow the written chain, without caps; N, C: chain ends. Non-standard residues stand in square brackets, D forms with d. Primed or numbered codes have the meaning given here. PyrS2″ = (S)-3-amino-1-((pent-4-en-1-yloxy)carbonyl)pyrrolidine-3-carboxylic acid (stapling residue), C=CCCCOC(=O)N1CC[C@@](N[*:1])(C(=O)[*:2])C1; B5(24) = 2-amino-2-(pent-4-en-1-yl)hept-6-enoic acid, 2,2-bis(4-pentenyl)glycine (stitching residue), C=CCCCC(CCCC=C)(N[*:1])C(=O)[*:2]; B5(4) = 2,2-bis(4-pentenyl)glycine = 2-amino-2-(pent-4-en-1-yl)hept-6-enoic acid (stitching residue), C=CCCCC(CCCC=C)(N[*:1])C(=O)[*:2]; B5(5) = 2,2-bis(4-pentenyl)glycine, 2-amino-2-(pent-4-en-1-yl)hept-6-enoic acid (stitching residue), C=CCCCC(CCCC=C)(N[*:1])C(=O)[*:2]; B5(8) = 2,2-bis(4-pentenyl)glycine (2-amino-2-(pent-4-en-1-yl)hept-6-enoic acid, stitching residue), C=CCCCC(CCCC=C)(N[*:1])C(=O)[*:2]; TfeGA = (S)-2-amino-3-((carboxymethyl)(2,2,2-trifluoroethyl)amino)propanoic acid, O=C([C@H](CN(CC(=O)[*:3])CC(F)(F)F)N[*:1])[*:2]; PyrS2 = (S)-3-amino-1-((pent-4-en-1-yloxy)carbonyl)pyrrolidine-3-carboxylic acid, C=CCCCOC(=O)N1CC[C@@](N[*:1])(C(=O)[*:2])C1; B5(12) = 2-amino-2-(pent-4-en-1-yl)hept-6-enoic acid (two olefin side chains), C=CCCCC(CCCC=C)(N[*:1])C(=O)[*:2]; PyrS2(5) = (S)-3-amino-1-((alkenyloxy)carbonyl)pyrrolidine-3-carboxylic acid, carbamate stapling residue; B5 = 2-amino-2-(pent-4-en-1-yl)hept-6-enoic acid, C=CCCCC(CCCC=C)(N[*:1])C(=O)[*:2]; Phe(3-COOH) = N[C@@H](Cc1cccc(C(=O)O)c1)C(=O)O; Ala(4-thiazolyl) = N[C@@H](Cc1cscn1)C(=O)O; Phe(2-Cl) = N[C@@H](Cc1ccccc1Cl)C(=O)O; Bta = N[C@@H](Cc1csc2ccccc12)C(=O)O; Lys(iPr) = CC(C)NCCCC[C@H](N)C(=O)O; αAllylPro = C=CC[C@@]1(C(=O)O)CCCN1; tBuAla = CC(C)(C)C[C@H](N)C(=O)O; 3Thi = N[C@@H](Cc1ccsc1)C(=O)O; Cha = N[C@@H](CC1CCCCC1)C(=O)O; Cit = NC(=O)NCCC[C@H](N)C(=O)O; S8 = C=CCCCCCC[C@](C)(N)C(=O)O; hSer = N[C@@H](CCO)C(=O)O; Nle = CCCC[C@H](N)C(=O)O; Aib = CC(C)(N)C(=O)O

In assay [1] the target is full-length beta-Catenin (Uniprot ID P35222) (Homo sapiens (Human)) (UniProt P35222). Briefly: FP competition; full-length beta-catenin + 5FAM-TCF4(10-53) probe.
Target sequence in this assay (P35222 whole entry, one chain of several): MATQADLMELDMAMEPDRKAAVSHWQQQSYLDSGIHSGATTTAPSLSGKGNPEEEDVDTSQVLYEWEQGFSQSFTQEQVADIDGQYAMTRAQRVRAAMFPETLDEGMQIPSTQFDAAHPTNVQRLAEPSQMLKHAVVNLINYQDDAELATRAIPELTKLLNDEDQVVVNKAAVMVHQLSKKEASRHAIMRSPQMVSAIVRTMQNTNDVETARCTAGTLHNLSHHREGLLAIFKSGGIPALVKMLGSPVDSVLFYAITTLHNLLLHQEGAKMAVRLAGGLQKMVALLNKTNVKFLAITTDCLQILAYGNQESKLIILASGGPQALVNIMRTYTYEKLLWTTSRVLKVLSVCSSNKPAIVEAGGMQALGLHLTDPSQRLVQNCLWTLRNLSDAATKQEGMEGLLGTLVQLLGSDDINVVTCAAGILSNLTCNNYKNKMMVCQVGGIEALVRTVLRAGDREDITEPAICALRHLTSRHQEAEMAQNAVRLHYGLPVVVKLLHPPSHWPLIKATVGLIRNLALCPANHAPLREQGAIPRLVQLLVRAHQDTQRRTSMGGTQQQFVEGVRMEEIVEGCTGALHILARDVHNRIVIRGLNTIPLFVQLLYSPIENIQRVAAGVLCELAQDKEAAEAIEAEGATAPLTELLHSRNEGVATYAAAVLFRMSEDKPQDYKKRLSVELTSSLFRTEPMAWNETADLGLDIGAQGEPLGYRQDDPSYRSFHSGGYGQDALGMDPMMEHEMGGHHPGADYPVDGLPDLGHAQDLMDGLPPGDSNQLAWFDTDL
Assay [2] shares this target. As to the kind of experiment: fluorescence polarization competition; competitor 5FAM-TCF4 10-53.
Target sequence in this assay (P35222 whole entry, one chain of several): as above
Assay [3] has as its target Bcat-Halo (beta-catenin HaloTag construct expressed in HEK293 cells) (UniProt P35222). As to the kind of experiment: NanoBRET target engagement in HEK293 cells, absolute IC50; competitor TCF4-Luc. For orientation: Bioluminescence resonance energy transfer reports proximity on the nanometre scale.
Assay [4] deals with Bcat-Halo (UniProt P35222). Briefly: NanoBRET Abs IC50 in HEK293 cells; competitor TCF4-Luc on Bcat-Halo.
Chain of Bcat-Halo (P35222 whole entry): as the sequence (P35222 whole entry, one chain of several) above
Assay [5] concerns the target full-length beta-Catenin (Uniprot ID P35222) (Homo sapiens (Human)) (UniProt P35222). As to the kind of experiment: fluorescence polarization competition vs 5FAM-TCF4(10-53) on full-length beta-catenin. A general note: In fluorescence polarisation assays a small probe gives low polarisation when free and higher when bound to something large.
Target sequence in this assay (P35222 2-781 limits assumed): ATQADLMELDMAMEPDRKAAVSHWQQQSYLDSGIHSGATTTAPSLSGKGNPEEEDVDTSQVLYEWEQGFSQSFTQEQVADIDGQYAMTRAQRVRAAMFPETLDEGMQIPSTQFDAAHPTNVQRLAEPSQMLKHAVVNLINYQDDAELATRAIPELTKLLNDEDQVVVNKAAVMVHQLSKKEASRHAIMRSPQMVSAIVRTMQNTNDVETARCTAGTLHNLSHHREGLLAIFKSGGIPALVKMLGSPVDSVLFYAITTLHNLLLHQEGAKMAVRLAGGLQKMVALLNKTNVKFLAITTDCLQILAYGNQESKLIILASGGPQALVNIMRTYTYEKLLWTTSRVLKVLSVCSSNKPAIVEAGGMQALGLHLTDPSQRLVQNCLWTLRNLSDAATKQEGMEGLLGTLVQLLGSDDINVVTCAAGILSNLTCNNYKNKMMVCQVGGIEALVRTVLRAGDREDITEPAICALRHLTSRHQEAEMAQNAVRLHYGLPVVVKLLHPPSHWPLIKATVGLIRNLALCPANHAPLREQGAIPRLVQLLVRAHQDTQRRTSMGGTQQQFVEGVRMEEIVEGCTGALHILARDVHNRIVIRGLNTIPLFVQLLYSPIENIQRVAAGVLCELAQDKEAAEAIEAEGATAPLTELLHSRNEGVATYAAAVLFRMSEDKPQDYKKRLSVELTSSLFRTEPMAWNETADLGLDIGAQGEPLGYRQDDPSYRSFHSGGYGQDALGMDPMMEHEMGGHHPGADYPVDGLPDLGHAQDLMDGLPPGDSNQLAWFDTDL
The target is the same in assay [6]. As to the kind of experiment: fluorescence polarization competition, 5FAM-TCF4 10-53 probe on full-length beta-catenin.
Target sequence in this assay (P35222 2-781 limits assumed): as above
Assay [7] deals with Bcat-Halo (UniProt P35222). Briefly: NanoBRET in HEK293 cells (Bcat-Halo / TCF4-Luc), absolute IC50; competitor: TCF4-Luc.
Assay [8] deals with full-length beta-Catenin (Uniprot ID P35222) (Homo sapiens (Human)) (UniProt P35222). As to the kind of experiment: fluorescence polarization competition; full-length beta-catenin; competitor displaced: 5FAM-TCF4 10-53.
Target sequence in this assay (P35222 2-781 limits assumed): as above
For assay [9] the target is unchanged. As to the kind of experiment: fluorescence polarization competition; full-length beta-catenin + 5FAM-TCF4(10-53) probe; peptide titrated.
Target sequence in this assay (P35222 2-781 limits assumed): as above
Assay [10] has the same target. As to the kind of experiment: FP competition vs 5FAM-TCF4(10-53), full-length beta-catenin.
Target sequence in this assay (P35222 2-781 limits assumed): as above
Assay [11] shares this target. As to the kind of experiment: fluorescence polarization competition; 10 nM full-length beta-catenin with 10 nM 5FAM-TCF4 (residues 10-53) probe as competitor.
Target sequence in this assay (P35222 2-781 limits assumed): as above
The target is the same in assay [12]. Briefly: fluorescence polarization competition; 10 nM full-length beta-catenin + 10 nM 5FAM-TCF4(10-53), peptide titrated.
Target sequence in this assay (P35222 whole entry, one chain of several): as the sequence (P35222 whole entry, one chain of several) above

Chain of Bcat-Halo (beta-catenin HaloTag construct expressed in HEK293 cells) (P35222 whole entry): as the sequence (P35222 whole entry, one chain of several) above

B1: I-2015 (peptide)
peptide: Ac-[αAllylPro]D[tBuAla][B5(4)]NTAAYN[PyrS2″][3Thi][Bta]Q-NH2
modifications: staple 1-4, 4-11; not fully specified; printed as Ac-PL3-Asp-Npg-B5-Asn-Thr-Ala-Ala-Tyr-Asn-PyrS2-3Thi-BztA-Gln-NH2
As a reminder, the IC50 is the concentration that inhibits the measured activity by half. Regarding B1, in assay [1], the IC50 stood at 522 nM.

For the molecule Ac-[αAllylPro]D[tBuAla][B5]D[TfeGA][Aib]AFT[PyrS2][Phe(2-Cl)][Bta]Q-NH2 (staple 1-4, 4-11) [I-1693], the half-inhibitory concentration (IC50) in assay [2] turned out to be 10 nM; in assay [3] it was 4600 nM.

With Ac-[αAllylPro]D[tBuAla][B5(5)]D[Phe(3-COOH)]AAFA[PyrS2″][Phe(2-Cl)][Bta]F-NH2 (staple 1-4, 4-11) [I-2025], the IC50 in assay [1] stood at 109 nM.

For orientation: EC50 means the concentration that produces a half-maximal response. As to Ac-[αAllylPro]D[Cha][B5(24)]DDAAFS[PyrS2″][Phe(2-Cl)][Bta]L-NH2 (staple 1-4, 4-11) [I-1138], the values for the IC50 in [4] and in [5] were 19800 nM and 18 nM, respectively. In addition, in assay [6], the EC50 came out at 18 nM.

For the molecule Ac-[αAllylPro]DI[B5(8)]D[TfeGA]AAFN[S8][3Thi][Bta]Q-NH2 (staple 1-4, 4-11) [I-701], the values for the half-maximal inhibitory concentration (IC50) in assay [7] and in assay [8] were 18100 nM and 34 nM, respectively. In addition, the EC50 in assay [9] stood at 34 nM.

Regarding Ac-[αAllylPro]D[tBuAla][B5(8)]DEAAFN[PyrS2″][3Thi][Bta]H-NH2 (staple 1-4, 4-11) [I-697], the half-inhibitory concentration (IC50) amounted to 14700 nM in [7] and 5 nM in assay [8]. In addition, the EC50 in [9] is 5 nM.

As for Ac-[αAllylPro]D[Cha][B5(24)]DDAAFS[PyrS2″][Phe(2-Cl)][Bta][hSer]-NH2 (staple 1-4, 4-11) [I-1137], the values for the half-inhibitory concentration (IC50) in assay [4] and in [5] were 12000 nM and 8 nM, respectively. Moreover, the EC50 in assay [6] was 8 nM.

With Ac-[αAllylPro]D[tBuAla][B5(4)]D[Phe(3-COOH)]AGFL[PyrS2(5)][Phe(2-Cl)][Bta]Q-NH2 (staple 1-4, 4-11) [I-1687], the IC50 in assay [2] came to 42 nM; in assay [3], 18600 nM.

As to Ac-[αAllylPro]D[Cha][B5(4)]DDLAFT[PyrS2″][Phe(2-Cl)][Bta]S-NH2 (staple 1-4, 4-11) [I-1150], the IC50 was 21400 nM in [4] and 12 nM in assay [5]. In addition, the concentration giving a half-maximal response (EC50) in assay [6] is 12 nM.

For the molecule Ac-[αAllylPro]D[Cha][B5(4)]DDLAFS[PyrS2″][Phe(2-Cl)][Bta]Q-NH2 (staple 1-4, 4-11) [I-1147], the IC50 was determined as 21100 nM in assay [4] and 10 nM in [5]. This molecule displayed a concentration giving a half-maximal response (EC50) in assay [6] of 10 nM.

For the molecule Ac-[αAllylPro]D[Cha][B5(4)]DDAAFL[PyrS2″][Phe(2-Cl)][Bta][dT]-NH2 (staple 1-4, 4-11) [I-1140], the values for the IC50 in assay [4] and in [5] were 32500 nM and 33 nM, respectively. In [6], this molecule gave an EC50 of 33 nM.

As to Ac-[αAllylPro]D[tBuAla][B5(4)]DEAAFN[PyrS2″]F[Bta]H-NH2 (staple 1-4, 4-11; not fully specified; printed as Ac-PL3-Asp-Npg-B5-Asp-Glu-Ala-Ala-Phe-Asn-PyrS2-Phe-BztA-His-NH2) [I-693], the figures for the half-maximal inhibitory concentration (IC50) in [7] and in [8] were 28500 nM and 12 nM, respectively. Moreover, the 50% effective concentration (EC50) in [9] came out at 12 nM.

Ac-[αAllylPro]D[tBuAla][B5(12)]DLAAFN[PyrS2][3Thi][Bta]-NH2 (staple 1-4, 4-11) [I-862] had an IC50 in [10] of 123 nM. Further, the EC50 in assay [11] came out at 123 nM.

Regarding Ac-[αAllylPro]D[tBuAla][B5]D[TfeGA]AGFT[PyrS2][Phe(2-Cl)][Bta]Q-NH2 (staple 1-4, 4-11) [I-1694], the half-maximal inhibitory concentration (IC50) amounted to 57 nM in assay [2] and 43600 nM in assay [3].

In assay [10], Ac-[αAllylPro]D[tBuAla][B5(12)]D[Cit]AAFN[PyrS2][3Thi][Bta]-NH2 (staple 1-4, 4-11) [I-861] came in with a 50% inhibitory concentration (IC50) of 40 nM. In addition, the half-maximal effective concentration (EC50) in [11] was found to be 40 nM.

The molecule Ac-[αAllylPro]D[tBuAla][B5(12)]DTAAFN[PyrS2][3Thi][Bta]-NH2 (staple 1-4, 4-11; also: later eluting staple isomer) [I-860] yielded an IC50 in assay [10] of 61 nM. For the same molecule, in assay [11], the EC50 was 61 nM.

In the case of Ac-[αAllylPro]D[tBuAla][B5]D[Phe(3-COOH)][Aib]GFL[PyrS2][Phe(2-Cl)][Bta]Q-NH2 (staple 1-4, 4-11) [I-1689], the IC50 in assay [2] was 25.5 nM; in [3] it was 12500 nM.

In the case of Ac-[αAllylPro]D[tBuAla][B5]D[TfeGA][Nle]GFT[PyrS2][Phe(2-Cl)][Bta]Q-NH2 (staple 1-4, 4-11) [I-1695], the concentration for half-maximal inhibition (IC50) was 93 nM in assay [2] and above 20000 nM in [3].

Turning to Ac-[αAllylPro]D[tBuAla][B5]D[TfeGA][Aib]GFT[PyrS2][Phe(2-Cl)][Bta]Q-NH2 (staple 1-4, 4-11) [I-1696], the figures for the IC50 in assay [2] and in assay [3] were 32 nM and 35500 nM, respectively.

As for Ac-[αAllylPro]D[Cha][B5(4)]DDALFT[PyrS2″][Phe(2-Cl)][Bta]S-NH2 (staple 1-4, 4-11) [I-1151], the IC50 stood at 25300 nM in assay [4] and 30 nM in assay [5]. Besides, in assay [6], the concentration giving a half-maximal response (EC50) worked out at 30 nM.

Consider Ac-[αAllylPro]N[Cha][B5(5)]DQ[Lys(iPr)]AFN[PyrS2″][Ala(4-thiazolyl)][Bta][hSer]-NH2 (staple 1-4, 4-11) [I-2071], for which, in assay [12], the half-maximal inhibitory concentration (IC50) turned out to be 592 nM.

In the case of Ac-[αAllylPro]D[tBuAla][B5]D[Phe(3-COOH)][Nle]GFL[PyrS2][Phe(2-Cl)][Bta]Q-NH2 (staple 1-4, 4-11) [I-1688], the results for the half-inhibitory concentration (IC50) in assay [2] and in assay [3] were 59 nM and 21500 nM, respectively.

Take Ac-[αAllylPro]D[Cha][B5(4)]DDLLFT[PyrS2″][Phe(2-Cl)][Bta]S-NH2 (staple 1-4, 4-11) [I-1152]: the IC50 in [4] is 14200 nM; in [5] it was 65 nM. Besides, in assay [6], the 50% effective concentration (EC50) worked out at 65 nM.

B2: I-2016 (peptide)
peptide: Ac-[αAllylPro]D[tBuAla][B5(4)]NTAAYN[PyrS2″][3Thi][Bta]Q-NH2
modifications: staple 1-4, 4-11; not fully specified; printed as Ac-PL3-Asp-Npg-B5-Asn-Thr-Ala-Ala-Tyr-Asn-PyrS2-3Thi-BztA-Gln-NH2
For the molecule B2, the concentration for half-maximal inhibition (IC50) in [1] was 703 nM.

On to Ac-[αAllylPro]D[Cha][B5(24)]DDAAFL[PyrS2″][Phe(2-Cl)][Bta]T-NH2 (staple 1-4, 4-11) [I-1139], for which the IC50 is 18000 nM in [4] and 22 nM in assay [5]. The molecule further registered a concentration for a half-maximal effect (EC50) in assay [6] of 22 nM.

Regarding Ac-[αAllylPro]D[Cha][B5(4)]DDALFS[PyrS2″][Phe(2-Cl)][Bta]Q-NH2 (staple 1-4, 4-11) [I-1148], the IC50 in assay [4] was determined as 21500 nM; in [5] it was 50 nM. In assay [6], this molecule gave an EC50 of 50 nM.

As to Ac-[αAllylPro]D[tBuAla][B5]D[TfeGA][Nle]AFT[PyrS2][Phe(2-Cl)][Bta]Q-NH2 (staple 1-4, 4-11) [I-1692], the half-maximal inhibitory concentration (IC50) in assay [2] stood at 17 nM; in assay [3], 10400 nM.

For the origin of these results see patent US20240116985A1, “STAPLED PEPTIDES AND METHODS THEREOF” (priority 2020, published 2024).
